Reference: patent US20160145352A1 (INSTITUT NATIONAL DE LA RECHERCHE AGRONOMIQUE, published 2016)

Legend:
[1] = molecular target: H2B histone in the monomeric state (HPLC-purified fraction) (human, UniProt P62807 2-126); experiment: immunoblot on HPLC-purified histones, VHH-HA plus anti-HA, HRP/ECL
Procedure: (§1) After blocking in TBS-T (Tris buffered saline, 0.1% Tween® 20), 5% skimmed milk, the membrane is incubated for 1 h in a dilution of the VHH-HA polypeptide (5 μg/ml) combined with an anti-HA antibody (HA-11 mouse monoclonal 16B12 from Covance) diluted to 1 μg/ml in TBS-T, 5% skimmed milk. The membranes are also probed with the anti-H2AX (Epitomics clone EPR895) and anti-γH2AX (Millipore) monoclonal antibodies. After 3 washes in TBS-T, the blot is incubated with the anti-mouse secondary antibody coupled to horseradish peroxidase (HRP) (Cell Signaling), then washed 3 times for 10 min. Visualization is carried out with an ECL substrate (Enhanced Chemiluminescence West Dura Thermo scientific). The chemiluminescence photon emission is captured by a camera (G-Box Syngene).
(§2) To this effect, the proteins of the fractions thus obtained, in particular of the fractions containing H2A, H2B and H3, and also a mixture of the H2A and H2B fractions, are separated by electrophoresis in a denaturing polyacrylamide gel (NuPage® Bis Tris, Life Technologies), then transferred onto a nitrocellulose membrane. The visualization is carried out according to the protocol described above.

[2] = molecular target: H3 histone (HPLC-purified fraction) (human, UniProt P68431 2-136); experiment: as above
Procedure: as §1, §2

[3] = molecular target: H4 histone (in total histones acid-extracted from HT1080 human cells) (human, UniProt P62805 2-103); experiment: immunoblot on acid-extracted total histones of HT1080 cells, overlaid on Ponceau red staining

Measured: binding result

B1: C76-HA polypeptide (VHH C76 fused to the HA tag) (VHH)
VHH: QVQLQASGGGLVQAGGSLRLSCAVSGGTLSSYTMGWFRQAPGKEREFVSALSRVGGKSDYADSVKGRFTISRNAKNTVYLQMNSLKPEDTAVYYCAAGGYSRRWSAYNYWGQGTQVTVS
notes: Secreted into E. coli culture medium from pHEN4-VHH; also called C75-HA (as printed in Experiment 2); VHH-HA; not shown: HA tag from the pHEN4 vector
no binding (tested: 5 µg/ml): all assays above

B2: C25-HA polypeptide (VHH C25 fused to the HA tag) (VHH)
VHH: QVQLQASGGGLVQAGESLTLSCDASGRTFSIGAMGWFRQAPGKEREFLAAINWNGGYTSYADVASGRFTISRNAKNTVYLQMNSLQPEDTAVYYCAAKYGGSARSRTYDYWGQGTQVTVS
notes: Secreted into E. coli culture medium from pHEN4-VHH; also called VHH-HA; not shown: HA tag from the pHEN4 vector
no binding (tested: 5 µg/ml): all assays above

B3: S2-HA polypeptide (VHH S2 fused to the HA tag) (VHH)
VHH: QVQLQASGGGLVQAGDSLRLSCAAAGRSFSSYAMGWFRQAPGKEREFVAAISRSRGVTYADSVKGRFTISKDNVKNMAYLQMNSLKPEDTGVYYCAATSSGSTRQLSTGRSNYWGQGTQVTVS
notes: Secreted into E. coli culture medium from pHEN4-VHH; it calls it the VHH domain; also called VHH-HA; not shown: HA tag from the pHEN4 vector
no binding (tested: 5 µg/ml): all assays above
